Molecular target: native OmpL1, 31-kDa outer membrane protein of Leptospira alstoni (Leptospira alstoni)
Experiment: immunoelectron microscopy of intact L. alstoni, protein G-colloidal gold (control serum)

preimmune serum from the same rabbit as the anti-OmpL1 antiserum (control serum)
gold particles per twenty organisms (particles per twenty organisms): 1

Reference: patent EP0693936B1
